In patent US10613105 (FRAUNHOFER GESELLSCHAFT ZUR FORDERUNG DER ANGEWANDTEN …, dated 2020):

molecular target: TLR4 receptor complex expressed in the NIH 3T3 pNifty SEAP TLR4/CD14 reporter cell line; test: cell-based or functional assay
Sequence (O00206 24-839, chain 1 of 2): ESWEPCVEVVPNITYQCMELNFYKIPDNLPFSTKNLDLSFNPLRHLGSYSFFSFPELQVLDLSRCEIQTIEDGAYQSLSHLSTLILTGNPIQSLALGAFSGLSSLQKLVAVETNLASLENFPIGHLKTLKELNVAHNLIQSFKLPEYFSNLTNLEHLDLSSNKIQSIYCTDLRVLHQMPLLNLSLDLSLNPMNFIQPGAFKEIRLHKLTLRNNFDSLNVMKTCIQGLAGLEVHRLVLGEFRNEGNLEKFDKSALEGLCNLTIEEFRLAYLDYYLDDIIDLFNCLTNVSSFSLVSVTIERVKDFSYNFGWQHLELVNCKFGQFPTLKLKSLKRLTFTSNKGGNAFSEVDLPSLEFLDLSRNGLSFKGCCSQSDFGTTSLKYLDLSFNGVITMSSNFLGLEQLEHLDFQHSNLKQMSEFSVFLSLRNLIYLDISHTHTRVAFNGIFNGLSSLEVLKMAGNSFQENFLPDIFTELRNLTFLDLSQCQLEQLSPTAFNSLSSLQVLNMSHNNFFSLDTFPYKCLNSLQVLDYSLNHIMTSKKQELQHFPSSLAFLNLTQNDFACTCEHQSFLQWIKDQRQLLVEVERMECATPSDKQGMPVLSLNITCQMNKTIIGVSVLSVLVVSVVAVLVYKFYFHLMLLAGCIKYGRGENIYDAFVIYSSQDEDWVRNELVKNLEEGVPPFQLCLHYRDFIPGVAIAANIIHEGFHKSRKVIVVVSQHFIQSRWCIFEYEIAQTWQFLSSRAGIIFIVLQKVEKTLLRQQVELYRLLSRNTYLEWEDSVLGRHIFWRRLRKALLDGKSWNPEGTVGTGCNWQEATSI
Sequence (P08571 20-345, chain 2 of 2, further chain): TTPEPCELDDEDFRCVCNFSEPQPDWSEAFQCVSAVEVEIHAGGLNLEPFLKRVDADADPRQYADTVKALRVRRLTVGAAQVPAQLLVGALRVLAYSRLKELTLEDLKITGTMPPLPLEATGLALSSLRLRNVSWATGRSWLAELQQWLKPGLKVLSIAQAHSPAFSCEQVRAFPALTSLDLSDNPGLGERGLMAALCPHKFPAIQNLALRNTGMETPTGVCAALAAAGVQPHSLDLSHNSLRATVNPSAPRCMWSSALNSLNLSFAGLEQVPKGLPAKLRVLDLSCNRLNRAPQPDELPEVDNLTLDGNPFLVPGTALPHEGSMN

IC50 in the PAMP assay (SEAP reporter, NIH 3T3 pNifty SEAP TLR4/CD14 cells), > 200 mM:
KGETVNTTISFSFKGIKFSK [KGETVNTTISFSFKGIKFSK peptide (SEQ ID NO: 1)]
KMQYPISINVNPCIELKGSK [KMQYPISINVNPCIELKGSK peptide (SEQ ID NO: 2)]
GLLHIFYIPRRDLKQLYFNL [GLLHIFYIPRRDLKQLYFNL peptide (SEQ ID NO: 3)]
KRKEVICRGSDDDYSFCRAL [KRKEVICRGSDDDYSFCRAL peptide (SEQ ID NO: 4)]
